Source: patent US7192735

Target: EntF (E. coli enterobactin synthetase component), apo form, P11454
Sequence (P11454 whole entry): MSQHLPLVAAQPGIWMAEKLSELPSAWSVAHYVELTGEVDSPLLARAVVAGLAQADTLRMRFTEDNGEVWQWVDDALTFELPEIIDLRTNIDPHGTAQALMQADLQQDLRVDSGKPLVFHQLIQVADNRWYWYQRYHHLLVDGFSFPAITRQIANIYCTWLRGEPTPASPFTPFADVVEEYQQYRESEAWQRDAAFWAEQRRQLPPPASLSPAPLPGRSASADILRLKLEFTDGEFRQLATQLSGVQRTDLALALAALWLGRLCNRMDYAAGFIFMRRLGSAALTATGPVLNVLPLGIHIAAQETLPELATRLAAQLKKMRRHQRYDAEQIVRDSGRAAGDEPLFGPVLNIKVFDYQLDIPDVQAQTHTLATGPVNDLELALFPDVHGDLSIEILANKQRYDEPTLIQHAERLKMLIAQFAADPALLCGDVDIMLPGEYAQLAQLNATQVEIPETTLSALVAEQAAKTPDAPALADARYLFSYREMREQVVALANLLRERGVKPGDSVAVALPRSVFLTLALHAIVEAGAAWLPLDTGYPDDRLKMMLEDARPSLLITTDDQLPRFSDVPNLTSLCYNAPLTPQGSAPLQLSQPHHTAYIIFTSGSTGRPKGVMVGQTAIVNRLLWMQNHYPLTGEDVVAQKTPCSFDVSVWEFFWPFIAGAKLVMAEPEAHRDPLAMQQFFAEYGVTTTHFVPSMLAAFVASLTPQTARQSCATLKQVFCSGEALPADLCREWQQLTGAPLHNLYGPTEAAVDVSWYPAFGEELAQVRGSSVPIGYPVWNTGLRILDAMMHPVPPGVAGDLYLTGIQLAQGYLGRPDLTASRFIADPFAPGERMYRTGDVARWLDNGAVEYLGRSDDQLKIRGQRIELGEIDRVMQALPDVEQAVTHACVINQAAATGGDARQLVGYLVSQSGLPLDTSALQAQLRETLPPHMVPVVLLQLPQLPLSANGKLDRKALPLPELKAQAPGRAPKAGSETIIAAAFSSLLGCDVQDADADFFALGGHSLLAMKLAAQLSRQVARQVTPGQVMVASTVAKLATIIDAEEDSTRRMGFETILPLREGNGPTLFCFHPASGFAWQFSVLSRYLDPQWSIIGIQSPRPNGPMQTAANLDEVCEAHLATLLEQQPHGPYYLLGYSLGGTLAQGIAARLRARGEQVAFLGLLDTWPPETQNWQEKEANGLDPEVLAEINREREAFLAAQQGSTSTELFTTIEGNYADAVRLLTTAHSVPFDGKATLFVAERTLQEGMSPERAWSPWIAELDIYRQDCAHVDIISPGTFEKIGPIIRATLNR

B1: o195 (E. coli ORF of unknown function), recombinant from pET28b-o195 (protein)
chain: MYRIVLGKVSTLSAAPLPPGLREQAPQGPRRERWLAGRALLSHTLSPLPEIIYGEQGKPAFAPEMPLWFNLSHSGDDIALLLSDEGEVGCDIEVIRPRANWRWLANAVFSLGEHAEMDAVHPDQQLEMFWRIWTRKEAIVKQRGGSAWQIVSVDSTYHSSLSVSHCQLENLSLAICTPTPFTLTADSVQWIDSVN
time course of incorporation of radiolabel into EntF: EntF undergoes almost no modification in the presence of 15-fold higher concentrations of ACPS and o195
